Entries after “also recorded” stand apart in the source; their conditions may differ. Square brackets hold non-standard residues; d marks the D form. Ends that are not written are not given here. Aib = CC(C)(N)C(=O)O
Key:
Type in all cases: physicochemical
[1] = FT-IR of Aib-modified IAPP peptide fragments; conditions: two week aged peptide solutions
Method: (§1) Fourier Transform Infrared Spectroscopy—Infrared spectra were recorded using a Nicolet Nexus 470 FT-IR spectrometer with a DTGS detector. Samples of two week aged peptide solutions, were suspended on a CaF2 plate and dried by vacuum. The peptide deposits were resuspended with D2O and subsequently dried to form thin films. The resuspension procedure was repeated twice to ensure maximal hydrogen to deuterium exchange. The measurements were taken using a 4 cm^−1 resolution and 2000 scans averaging. The transmittance minima values were determined by the OMNIC analysis program (Nicolet).

[2] = Transmission electron microscopy of wild-type and Aib modified hIAPP peptides; conditions: 5 mM peptide, aged 4 days (wt) or 10 days (modified)
Method: Peptide solutions—freshly prepared stock solutions were prepared by dissolving the lyophilized form of the peptides in dimethyl sulfoxide (DMSO) at a concentration of 100 mM. To avoid any pre-aggregation, fresh stock solutions were prepared for each experiment. […] Transmission Electron Microscopy—a 10 μL sample of 5 mM peptide solution in 10 mM Tris buffer, pH 7.2 aged for 4 days (for wt peptides) and for 10 days (for modified peptides) was placed on 400-mesh copper grids (SPI supplies, West Chester Pa.) covered by carbon-stabilized Formvar film. After 1 minute, excess fluid was removed, and the grid was then negatively stained with 2% uranyl acetate in water for another 2 minutes. Samples were viewed in a JEOL 1200EX electron microscope operating at 80 kV.

[3] = Congo Red staining and birefringence of wild-type and Aib substituted IAPP peptides; conditions: 5 mM peptide aged for 10 days
Method: (§2) Congo Red Staining and Birefringence—A 10 μL suspension of 5 mM peptide solution in 10 mM Tris buffer, pH 7.2 aged for 10 days was allowed to dry overnight on a glass microscope slide. Staining was performed by the addition of a 10 μL suspension of saturated Congo Red (CR) and NaCl in 80% ethanol (v/v) solution. The solution was filtered via 0.2 μm filter. The slide was then dried for a few hours. Birefringence was determined with a SZX-12 Stereoscope (Olympus, Hamburg, Germany) equipped with cross polarizers. 100× magnification is shown.

[4] = Transmission electron microscopy of aged peptides (Example 10); conditions: for structures by electron microscopy: hIAPP peptide fragments, 8 mg/ml aged at least one day
Method: Transmission Electron Microscopy—A 10 μL sample of 8 mg/ml peptide solution in 10 mM Tris buffer, pH 7.2 aged for at least one day was placed on 400-mesh copper grids (SPI supplies, West Chester Pa.) covered by carbon-stabilized Formvar film. Following 1 minute, excess fluid was removed, and the grid was then negatively stained with 2% uranyl acetate in water for another two minutes. Samples were viewed in a JEOL 1200EX electron microscope operating at 80 kV.

[5] = Congo Red staining and birefringence (Example 9); conditions: hIAPP peptide fragments, 8 mg/ml aged at least one day
Method: as §2, with “8 mg/ml” for “5 mM”, “at least one day” for “10 days”, “solution as previously described [Puchtler (1966) Supra].” for “solution.”, “0.45” for “0.2”, “for” for “for a”, “polarizers.” for “polarizers. 100× magnification is shown.”

[6] = Fourier transform infrared spectroscopy of aged peptides (Example 11); conditions: hIAPP peptide fragments, aged solutions from turbidity assay
Method: as §1, with “of” for “of two week”, “solutions, taken from turbidity assay,” for “solutions,”, “widows (Sigma)-plate” for “plate”, “[…]” for “D2O”

[7] = Kinetic aggregation assay, turbidity at 405 nm (Example 8); conditions: hIAPP peptide fragments, 8 mg/ml, 8% DMSO, monitored two hours
Method: Kinetic Aggregation Assay—freshly prepared peptide stock solutions were generated by dissolving the lyophilized form of the peptides in dimethyl sulfoxide (DMSO) at a concentration of 100 mg/ml. To avoid any pre-aggregation, fresh stock solutions were prepared for each experiment. […] Turbidity data were collected at 405 nm. Buffer solution containing the same amount of DMSO as the tested samples was used as blank, which was subtracted from the results. Turbidity was measured continuously at room temperature using THERMOmax ELISA plate reader (Molecular Devices, Sunnyvale Calif.).

[8] = Aggregate mean particle size by dynamic light scattering; conditions: 100 μM peptide, 1% DMSO, 10 mM Tris pH 7.2
Method: Therefore, the average size of the aggregates, formed by the various peptides, was determined using dynamic light scattering (DLS) experiments.
Method—Freshly prepared peptide stock solutions at a concentration of 10 mM were diluted in 10 mM Tris buffer pH 7.2 and further filtrated through a 0.2 μm filter to a final concentration of 100 μM peptide and 1% DMSO. Particle size measurement was conducted with a laser-powered ALV-NIBS/HPPS non-invasive backscattering instrument. Autocorrelation data was fitted using the ALV-NIBS/HPPS software to derive average apparent hydrodynamic diameters.

[9] = Negative staining electron microscopy of fibril formation (Example 5); conditions: 2 mM peptide incubated overnight
Method: Method—Peptide solutions (2 mM peptide in 10 mM Tris buffer pH 7.2), were incubated overnight at room temperature. Fibrils formation was assessed using 10 μl sample placed on 200-mesh copper grids, covered with carbon-stabilized formvar film (SPI Supplies, West Chester Pa.). Following 20-30 seconds of incubation, excess fluid was removed and the grids were negatively stained with 2% uranyl acetate in water. Samples were viewed in a JEOL 1200EX electron microscope operating at 80 kV.

[10] = Congo red binding assay with polarization microscopy (Example 4)
Method: Congo red (CR) staining combined with polarization microscopy was utilized to test amyloidogenicity of the peptides of the present invention. […] Invest. 31:232-8; Lansbury (1992) Biochemistry 31:6865-70]. […] Staining was effected by the addition of 1 mM CR in 10 mM Tris buffer pH 7.2 followed by a 1 minute incubation. To remove excess CR, slides were rinsed with double-distilled water and dried. Saturated CR solutions solubilized in 80% ethanol (v/v) were used for poorly aggregating peptides. In such cases, staining was effected without rinsing. Birefringence was determined using a WILD Makroskop m420 (×70) equipped with a polarizing stage.

[11] = Kinetic aggregation assay (turbidity at 405 nm) of IAPP peptide fragment and alanine mutants; conditions: 2 mM peptide, 10 mM Tris pH 7.2, 2% DMSO, room temperature
Method: To study self-assembly of the IAPP peptide derived fragments, aggregation and insolubilization kinetics were monitored using turbidity measurements at 405 nm.
Kinetic aggregation assay—Fresh peptide stock solutions were prepared by dissolving lyophilized form of the peptides in DMSO, a disaggregating solvent, at a concentration of 100 mM. To avoid any pre-aggregation, fresh stock solutions were prepared prior to each and every experiment. Peptide stock solutions were diluted into assay buffer and plated in 96-well plates as follows: 2 μl of peptides stock solutions were added to 98 μl of 10 mM Tris pH 7.2, resulting in a 2 mM final concentration of the peptide in the presence of 2% DMSO. Turbidity data was measured at 405 nm. A buffer solution including 2% DMSO was used as a blank. Turbidity was measured at room temperature over several time points.

[12] = Kinetic aggregation assay, turbidity at 405 nm (Example 8); conditions: hIAPP 22-29 analogues incubated for 1 week
[13] = peptide solutions incubated for four days

ANFLV
secondary structure by FT-IR [1]: typical of β-sheet spectra
structures by electron microscopy [2]: formed fibrillar structures
Congo Red birefringence [3]: typical yellow-green birefringence

ANFLVH
secondary structure by FT-IR [1]: typical of β-sheet spectra
structures by electron microscopy [2]: formed fibrillar structures
Congo Red birefringence [3]: typical yellow-green birefringence

Aib-NF-Aib-V ([Aib]NF[Aib]V)
secondary structure by FT-IR [1]: characteristic to a random coil conformation
structures by electron microscopy [2]: no fibrillar structures were evident
Congo Red birefringence [3]: no birefringence

Aib-NF-Aib-VH ([Aib]NF[Aib]VH)
secondary structure by FT-IR [1]: characteristic to a random coil conformation
structures by electron microscopy [2]: no fibrillar structures were evident
Congo Red birefringence [3]: no birefringence

FLVH
structures by electron microscopy [4]: amorphous aggregates
amyloid fibril formation (EM, CR staining, FT-IR) ([4]; incubated for two months): no evidence for amyloid fibril formation was detected
Congo Red birefringence [5]: no birefringence
secondary structure by FT-IR [6]: typical to random coil structure
turbidity at 405 nm [7]: almost no turbidity at all

FLVHSS
structures by electron microscopy [4]: large broad ribbon-like fibrils
Congo Red birefringence [5]: typical birefringence
secondary structure by FT-IR [6]: major minimum at 1626
turbidity at 405 nm [7]: high turbidity

G3A: alanine-scan mutant of the hIAPP peptide fragment, SEQ ID NO: 4 (NFAAILSS)
apparent hydrodynamic diameter of the structures formed [8]: very similar hydrodynamic diameters
fibril structures by electron microscopy [9]: tangled net-like structures
Congo red binding and birefringence [10, 13]: bound CR and exhibited the characteristic green/gold birefringence
kinetics of aggregation (turbidity at 405 nm) [11]: essentially the same profile as that of wild type peptide

I5A: isoleucine to alanine mutant of the hIAPP peptide fragment, SEQ ID NO: 5 (NFGAALSS)
apparent hydrodynamic diameter of the structures formed [8]: Smaller structures
fibril structures by electron microscopy [9]: lower in comparison to that of wild type; also recorded: More distinct structures and longer fibrils, albeit less frequent
Congo red binding and birefringence [10, 13]: bound CR and exhibited rare but characteristic birefringence
kinetics of aggregation (turbidity at 405 nm) [11]: reduced the kinetics of aggregation but did not abolish it completely

L6A: leucine to alanine mutant of the hIAPP peptide fragment, SEQ ID NO: 6 (NFGAIASS)
apparent hydrodynamic diameter of the structures formed [8]: Smaller structures
fibril structures by electron microscopy [9]: lower in comparison to that of wild type; also recorded: More distinct structures and longer fibrils, albeit less frequent
Congo red binding and birefringence [10, 13]: bound CR and exhibited rare but characteristic birefringence
kinetics of aggregation (turbidity at 405 nm) [11]: reduced the kinetics of aggregation but did not abolish it completely

N1A: alanine-scan mutant of the hIAPP peptide fragment, SEQ ID NO: 2 (AFGAILSS)
apparent hydrodynamic diameter of the structures formed [8]: Smaller structures
fibril structures by electron microscopy [9]: tangled net-like structures
Congo red binding and birefringence [10, 13]: bound CR and exhibited the characteristic green/gold birefringence
kinetics of aggregation (turbidity at 405 nm) [11]: higher kinetics of aggregation

NAGAILSS
endpoint turbidity [12]: lower extent

NFLVH
structures by electron microscopy [4]: thin and short
Congo Red birefringence [5]: powerful smear of birefringence at the edges of the sample
secondary structure by FT-IR [6]: indicative of β-sheet
turbidity at 405 nm [7]: almost no turbidity at all

NFLVHSS
structures by electron microscopy [4]: large broad ribbon-like fibrils
Congo Red birefringence [5]: typical birefringence
secondary structure by FT-IR [6]: classical for an anti-parallel β-sheet structure
turbidity at 405 nm [7]: high turbidity

NFLVHSSNN
structures by electron microscopy [4]: long thin coiling filaments
Congo Red birefringence [5]: weaker characteristic birefringence
secondary structure by FT-IR [6]: large β-sheet content
turbidity at 405 nm [7]: very low turbidity

NIGAILSS
endpoint turbidity [12]: some low degree of turbidity

NLGAILSS
endpoint turbidity [12]: lower extent

NVGAILSS
endpoint turbidity [12]: lower extent

wild type peptide: wild-type eight amino-acid hIAPP peptide fragment, NFGAIL motif followed by two serines, SEQ ID NO: 1 (NFGAILSS)
apparent hydrodynamic diameter of the structures formed [8]: very similar hydrodynamic diameters
fibril structures by electron microscopy [9]: tangled net-like structures
Congo red binding and birefringence ([10]; peptide solution incubated for 14 days): significant CR birefringence
Congo red binding and birefringence [10, 13]: bound CR and exhibited the characteristic green/gold birefringence

Reference: US8012929B2, “Peptides directed for diagnosis and treatment of amyloid-associated diseases” (Tel Aviv University Future Technology Development L.P., priority 2002, dated 2011)
